Test results taken from PMC5737367.

Target: Rif1 1709-1916 (UniProt P29539)
Experiment: GST pull-down from yeast lysate
Details: reference: wild type; sites S731

## Rap1 (from UniProt P11938) S731A
  binding against the reference: weaker
